Measurements taken from the supplement of paper PMC11246515.
± gives the standard deviation of the averaged measurements.

Test: total protein half-life in vivo (active degradation + dilution); higher = more stable protein
[1] = E. coli NCM3722 delta-clpP delta-lon delta-hslV, growth: N-lim chemostat, doubling time 6 h
[2] = E. coli NCM3722 delta-clpP, growth: N-lim chemostat, doubling time 6 h
[3] = E. coli NCM3722 delta-lon, growth: N-lim chemostat, doubling time 6 h
[4] = E. coli NCM3722 delta-smpB, growth: N-lim chemostat, doubling time 6 h
[5] = wild type E. coli NCM3722, growth: C-lim chemostat, doubling time 3 h
[6] = wild type E. coli NCM3722, growth: C-lim chemostat, doubling time 6 h
[7] = wild type E. coli NCM3722, growth: C-lim chemostat, doubling time 12 h
[8] = wild type E. coli NCM3722, growth: N-lim chemostat, doubling time 6 h
[9] = wild type E. coli NCM3722, growth: N-lim chemostat, doubling time 12 h
[10] = wild type E. coli NCM3722, growth: P-lim chemostat, doubling time 6 h
[11] = wild type E. coli NCM3722, growth: P-lim chemostat, doubling time 12 h
[12] = E. coli NCM3722 delta-hslV, growth: N-lim chemostat, doubling time 6 h

Sequence: MLYGFSGVILQGALVTLELAISSVVLAVIIGLIGAGGKLSQNRLSGLIFEGYTTLIRGVPDLVLMLLIFYGLQIALNTVTEAMGVGQIDIDPMVAGIITLGFIYGAYFTETFRGAFMAVPKGHIEAATAFGFTRGQVFRRIMFPSMMRYALPGIGNNWQVILKSTALVSLLGLEDVVKATQLAGKSTWEPFYFAIVCGVIYLVFTTVSNGVLLFLERRYSVGVKRADL
- total protein half-life in vivo [1]: 5.69 ± 0.1 h
- total protein half-life in vivo [2]: 6.04 ± 0.29 h
- total protein half-life in vivo [3]: 6.66 ± 0.46 h
- total protein half-life in vivo [4]: 5.85 ± 0.34 h
- total protein half-life in vivo [5]: 3.09 ± 0.16 h
- total protein half-life in vivo [6]: 5.6235 ± 0.0025 h
- total protein half-life in vivo [7]: 11.5 ± 2.1 h
- total protein half-life in vivo [8]: 6.17 ± 0.47 h
- total protein half-life in vivo [9]: 12.8 ± 2.3 h
- total protein half-life in vivo [10]: 5.65 ± 0.36 h
- total protein half-life in vivo [11]: 11.2 ± 2.3 h

Sequence: MLYIDKATILKFDLEMLKKHRRAIQFIAVLLFIVGLLCISFPFVSGDILSTVVGALLICSGIALIVGLFSNRSHNFWPVLSGFLVAVAYLLIGYFFIRAPELGIFAIAAFIAGLFCVAGVIRLMSWYRQRSMKGSWLQLVIGVLDIVIAWIFLGATPMVSVTLVSTLVGIELIFSAASLFSFASLFVKQQ [P0AET5]
- total protein half-life in vivo [1]: 5.35 ± 0.17 h
- total protein half-life in vivo [2]: 5.39 ± 0.49 h
- total protein half-life in vivo [12]: 5.44 ± 0.84 h
- total protein half-life in vivo [3]: 5.08 ± 0.17 h
- total protein half-life in vivo [4]: 6.6 ± 0.066 h
- total protein half-life in vivo [5]: 2.2 h
- total protein half-life in vivo [7]: > 16 h
- total protein half-life in vivo [8]: 5.33 ± 0.29 h
- total protein half-life in vivo [9]: 10.1 h
- total protein half-life in vivo [10]: 5.5 ± 0.65 h
- total protein half-life in vivo [11]: 10.1 ± 1.1 h

Sequence: MLYKGDTLYLDWLEDGIAELVFDAPGSVNKLDTATVASLGEAIGVLEQQSDLKGLLLRSNKAAFIVGADITEFLSLFLVPEEQLSQWLHFANSVFNRLEDLPVPTIAAVNGYALGGGCECVLATDYRLATPDLRIGLPETKLGIMPGFGGSVRMPRMLGADSALEIIAAGKDVGADQALKIGLVDGVVKAEKLVEGAKAVLRQAINGDLDWKAKRQPKLEPLKLSKIEATMSFTIAKGMVAQTAGKHYPAPITAVKTIEAAARFGREEALNLENKSFVPLAHTNEARALVGIFLNDQYVKGKAKKLTKDVETPKQAAVLGAGIMGGGIAYQSAWKGVPVVMKDINDKSLTLGMTEAAKLLNKQLERGKIDGLKLAGVISTIHPTLDYAGFDRVDIVVEAVVENPKVKKAVLAETEQKVRQDTVLASNTSTIPISELANALERPENFCGMHFFNPVHRMPLVEIIRGEKSSDETIAKVVAWASKMGKTPIVVNDCPGFFVNRVLFPYFAGFSQLLRDGADFRKIDKVMEKQFGWPMGPAYLLDVVGIDTAHHAQAVMAAGFPQRMQKDYRDAIDALFDANRFGQKNGLGFWRYKEDSKGKPKKEEDAAVEDLLAEVSQPKRDFSEEEIIARMMIPMVNEVVRCLEEGIIATPAEADMALVYGLGFPPFHGGAFRWLDTLGSAKYLDMAQQYQHLGPLYEVPEGLRNKARHNEPYYPPVEPARPVGDLKTA
- total protein half-life in vivo [1]: 4.12 ± 0.27 h
- total protein half-life in vivo [2]: 3.24 ± 0.056 h
- total protein half-life in vivo [12]: 3.02 ± 0.12 h
- total protein half-life in vivo [3]: 3.8 ± 0.82 h
- total protein half-life in vivo [4]: 3.27 ± 0.31 h
- total protein half-life in vivo [5]: 2.93 ± 0.14 h
- total protein half-life in vivo [6]: 4.89 ± 0.061 h
- total protein half-life in vivo [7]: 8.047 ± 0.056 h
- total protein half-life in vivo [8]: 3.34 ± 0.46 h
- total protein half-life in vivo [9]: 4.71 ± 0.23 h
- total protein half-life in vivo [10]: 5.3 ± 0.11 h
- total protein half-life in vivo [11]: 9.82 ± 0.77 h

Sequence: MLYLTKISNAGSEFTENEQKIADFLQANVSELQSVSSRQMAKQLGISQSSIVKFAQKLGAQGFTELRMALIGEYSASREKTNATALHLHSSITSDDSLEVIARKLNREKELALEQTCALLDYARLQKIIEVISKAPFIQITGLGGSALVGRDLSFKLMKIGYRVACEADTHVQATVSQALKKGDVQIAISYSGSKKEIVLCAEAARKQGATVIAITSLTDSPLRRLAHFTLDTVSGETEWRSSSMSTRTAQNSVTDLLFVGLVQLNDVESLKMIQRSSELTQRLK
- total protein half-life in vivo [1]: 6.32 ± 0.32 h
- total protein half-life in vivo [2]: 5.62 ± 0.76 h
- total protein half-life in vivo [12]: 5.52 ± 0.44 h
- total protein half-life in vivo [3]: 5.93 ± 2.8 h
- total protein half-life in vivo [4]: 5.37 ± 0.52 h
- total protein half-life in vivo [5]: 3.04 ± 0.11 h
- total protein half-life in vivo [6]: 5.97 ± 0.46 h
- total protein half-life in vivo [7]: 12.7 ± 3 h
- total protein half-life in vivo [8]: 5.36 ± 0.48 h
- total protein half-life in vivo [10]: 5.74 h
- total protein half-life in vivo [11]: 12 ± 2 h

Sequence: MMDSLRTAANSLVLKIIFGIIIVSFILTGVSGYLIGGGNNYAAKVNDQEISRGQFENAFNSERNRMQQQLGDQYSELAANEGYMKTLRQQVLNRLIDEALLDQYARELKLGISDEQVKQAIFATPAFQVDGKFDNSRYNGILNQMGMTADQYAQALRNQLTTQQLINGVAGTDFMLKGETDELAALVAQQRVVREATIDVNALAAKQPVTEQEIASYYEQNKNNFMTPEQFRVSYIKLDAATMQQPVSDADIQSYYDQHQDQFTQPQRTRYSIIQTKTEDEAKAVLDELNKGGDFAALAKEKSADIISARNGGDMGWLEDATIPDELKNAGLKEKGQLSGVIKSSVGFLIVRLDDIQPAKVKSLDEVRDDIAAKVKHEKALDAYYALQQKVSDAASNDTESLAGAEQAAGVKATQTGWFSKDNLPEELNFKPVADAIFNGGLVGENGAPGINSDIITVDGDRAFVLRISEHKPEAVKPLADVQEQVKALVQHNKAEQQAKVDAEKLLVDLKAGKGAEAMQAAGLKFGEPKTLSRSGRDPISQAAFALPLPAKDKPSYGMATDMQGNVVLLALDEVKQGSMPEDQKKAMVQGITQNNAQIVFEALMSNLRKEAKIKIGDALEQQ [P0ADY1]
- total protein half-life in vivo [1]: 6.92 ± 0.99 h
- total protein half-life in vivo [2]: 6.533 ± 0.039 h
- total protein half-life in vivo [12]: 5.89 ± 0.078 h
- total protein half-life in vivo [3]: 6.39 ± 0.26 h
- total protein half-life in vivo [4]: 6.15 ± 0.67 h
- total protein half-life in vivo [5]: 3.05 ± 0.23 h
- total protein half-life in vivo [6]: 5.96 ± 0.096 h
- total protein half-life in vivo [7]: 12.7 ± 1.2 h
- total protein half-life in vivo [8]: 6.17 ± 0.25 h
- total protein half-life in vivo [9]: 12.8 ± 1.7 h
- total protein half-life in vivo [10]: 5.92 ± 0.088 h
- total protein half-life in vivo [11]: 12.4 ± 0.2 h
